Measured values: patent US20210253716A1 (Regeneron, published 2021)
Positions count from the first letter of the chain named. One block for each binder: values may come before it.

Key:
[1] = target: T1, full length human ACVR1 (R206H) on HEK293/BRE-luc/hACVR1-R206H-clone H2 cells (human, UniProt Q04771 21-509); assay: flow cytometry, 70 nM antibody, HEK293/hACVR1-R206H cells
T1 construct: also called HEK293/hACVR1-R206H
T1 sequence: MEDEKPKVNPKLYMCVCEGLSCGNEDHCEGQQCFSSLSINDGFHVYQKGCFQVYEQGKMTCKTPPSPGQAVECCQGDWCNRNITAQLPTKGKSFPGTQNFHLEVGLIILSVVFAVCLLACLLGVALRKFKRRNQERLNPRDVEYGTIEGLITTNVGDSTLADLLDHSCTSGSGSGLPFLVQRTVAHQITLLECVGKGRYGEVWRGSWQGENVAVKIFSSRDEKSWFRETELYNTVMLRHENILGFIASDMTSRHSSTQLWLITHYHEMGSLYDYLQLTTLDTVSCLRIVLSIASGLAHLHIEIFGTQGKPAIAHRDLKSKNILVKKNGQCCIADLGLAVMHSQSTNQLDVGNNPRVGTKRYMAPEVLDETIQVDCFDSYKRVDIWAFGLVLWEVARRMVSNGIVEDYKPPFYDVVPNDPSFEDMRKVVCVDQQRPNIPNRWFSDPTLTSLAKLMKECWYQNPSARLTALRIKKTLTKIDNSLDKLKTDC
Method: Cells were fixed using BD CytoFix™ (Becton Dickinson, #554655) and analyzed on either Hypercyt® or IQue® Flow Cytometers (Intellicyt®). Unstained and secondary antibody alone controls were also tested for all cell lines. The results were analyzed using ForeCyt® (IntelliCyt®) software to determine the geometric means of fluorescence for viable cells and binding ratios were calculated by normalizing the geometric mean value of the test condition by the geometric mean value of the corresponding unstained cells.

[2] = target: T2, human ACVR1 extracellular domain expressed with a C-terminal mouse IgG2a Fc tag (human); assay: SPR (Biacore), mAb captured, 37 C
T2 construct: also called hACVR1-mFc
T2 chain: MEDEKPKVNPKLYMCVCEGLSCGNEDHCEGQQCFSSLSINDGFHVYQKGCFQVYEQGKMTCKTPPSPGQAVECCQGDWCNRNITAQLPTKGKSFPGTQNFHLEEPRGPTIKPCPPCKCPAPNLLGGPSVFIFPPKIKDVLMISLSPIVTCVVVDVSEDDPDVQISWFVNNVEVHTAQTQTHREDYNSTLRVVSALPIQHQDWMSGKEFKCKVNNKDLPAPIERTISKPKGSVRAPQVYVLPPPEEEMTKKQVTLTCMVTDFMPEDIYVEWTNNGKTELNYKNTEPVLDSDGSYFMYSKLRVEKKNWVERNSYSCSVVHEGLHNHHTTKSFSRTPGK
Method: (§1) Equilibrium dissociation constants (KD) for ACVR1 binding to purified anti-ACVR1 monoclonal antibodies were determined using a real-time surface plasmon resonance biosensor (SPR-Biacore), Biacore 4000. All binding studies were performed in 10 mM HEPES, 150 mM NaCl, 3 mM EDTA, and 0.05% v/v surfactant Tween-20, pH 7.4 (HBS-ET) running buffer at 25° C. and 37° C. The Biacore CM5 sensor surface was first derivatized by amine coupling with a monoclonal mouse anti-human Fc antibody (GE, #BR-1008-39 or REGN2567) to capture anti-ACVR1 monoclonal antibodies. […] ACVR1 reagents were then injected over anti-human Fc captured anti-ACVR1 monoclonal antibody surface for 2.5-3 minutes at a flow rate of 30 μL/minute, while the dissociation of monoclonal antibody bound ACVR1 reagent was monitored for 10-15 minutes in HBS-ET running buffer. Kinetic association rate constant (kₐ) and dissociation rate constant (kd) were determined by fitting the real-time sensorgrams to a 1:1 binding model using Scrubber 2.0c curve-fitting software. Binding dissociation equilibrium constants (KD) and dissociative half-lives (t½) were calculated from the kinetic rate constants as: […]

[3] = target: T3, human ACVR1 extracellular domain expressed with a C-terminal myc-myc-hexahistidine tag (human); assay: SPR (Biacore), mAb captured, 37 C
T3 construct: also called hACVR1-MMH
T3 chain: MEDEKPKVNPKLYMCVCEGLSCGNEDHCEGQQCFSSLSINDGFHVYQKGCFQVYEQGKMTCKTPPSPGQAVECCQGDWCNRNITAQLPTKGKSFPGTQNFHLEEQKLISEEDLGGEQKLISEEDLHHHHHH
Method: as §1

[4] = target: T2, human ACVR1 extracellular domain …; assay: SPR (Biacore), mAb captured, 25 C
Method: as §1

[5] = target: T3, human ACVR1 extracellular domain …; assay: SPR (Biacore), mAb captured, 25 C
Method: as §1

[6] = target: T4, mouse ACVR1 extracellular domain expressed with a C-terminal myc-myc-hexahistidine tag (mouse); assay: SPR (Biacore), mAb captured, 25 C; 25 C
T4 construct: also called mACVR1-MMH; mACVR1-mmh
T4 chain: T3 chain with M1V, P10Q
Method: as §1

[7] = target: T1, full length human ACVR1 (R206H) on …; assay: cell-based or functional assay
[8] = target: T4, mouse ACVR1 extracellular domain …; assay: SPR (Biacore), mAb captured, 37 C
Method: as §1

[9] = target: T4, mouse ACVR1 extracellular domain …; assay: SPR (Biacore), mAb captured, 25 C
Method: as §1

[10] = target: T3, human ACVR1 extracellular domain …; assay: SPR (Biacore), mAb captured, 37 C; 37 C
Method: as §1

B1: mAb27242 (antibody, human IgG4 S228P, kappa, V domains shown)
VH: QVQLQQWGAGLLKPSETLSLTCAVYNGSFSSFYWSWIRQPPGKGLEWLGEINHRGRTNNNPSLASRVTISVDTSKSQFSLRLTSVTAADTATYYCTAHTRGFLYWGQGTRVTVSS
VL: DIQMTQSPSSLSASVGDRVTITCQASQDINNYLNWYQQKPGQAPNLLIYDVFNLLPGVPSRFSGSGSGTDFSFTISSLQPEDIATYYCQHYDDLPLTFGGGTTVAIRR
MFI - Normalized to Unstained Control [1]: 1730 fold
100 nM Ag Bound (RU) [2]: 250 RU
Kd [2]: 0.669 nM
koff [2]: 0.000189 s⁻¹
kon [2]: 282000 M⁻¹ s⁻¹
t½ [2]: 61 min
900 nM or 100 nM Ag Bound (RU) [3]: 82 RU
Kd [3]: 5.77 nM
koff [3]: 0.00083 s⁻¹
kon [3]: 144000 M⁻¹ s⁻¹
t½ [3]: 14 min
100 nM Ag Bound (RU) [4]: 199 RU
Kd [4]: 0.202 nM
koff [4]: 2.9e-05 s⁻¹
kon [4]: 144000 M⁻¹ s⁻¹
t½ [4]: 398 min
900 nM or 100 nM Ag Bound (RU) [5]: 63 RU
Kd [5]: 1.56 nM
koff [5]: 0.000135 s⁻¹
kon [5]: 86800 M⁻¹ s⁻¹
t½ [5]: 86 min
Kd [6]: 602 nM
koff [6]: 0.144 s⁻¹
kon [6]: 238000 M⁻¹ s⁻¹
t½ [6]: 0.08 min
% Inhibition, BRE-luc reporter, 2 nM hBMP7 [7]: 109%
IC50 [M], BRE-luc reporter, 2 nM hBMP7 [7]: 1.2e-09 M

B3: mAb27405 (antibody, human IgG4 S228P, kappa, V domains shown)
VH: QVQLVESGGGLVKPGGSLRLSCAASGFTFSDYYMSWIRQAPGKGLEWVSYISRTGSTKYYADSVKGRFTISRDNAKNSLNLQMSSLRAEDTAVYFCAREPLQHWGQGTLVTVSS
VL: KIVLTQTPLSSPVTLGQPASISCRSSQSLVHSDGDTYLSWLHQRPGQPPRLLIYTISNRLSGVPDRFSGSGAGTDFTLKISRVEAEDVGVYYCMQGTQFPALTFGGGTKVEIKR
MFI - Normalized to Unstained Control [1]: 1560 fold
100 nM Ag Bound (RU) [2]: 185 RU
Kd [2]: 3.18 nM
koff [2]: 0.000742 s⁻¹
kon [2]: 233000 M⁻¹ s⁻¹
t½ [2]: 16 min
900 nM or 100 nM Ag Bound (RU) [3]: 52 RU
Kd [3]: 44.4 nM
koff [3]: 0.00528 s⁻¹
kon [3]: 119000 M⁻¹ s⁻¹
t½ [3]: 2.2 min
900 nM or 100 nM Ag Bound (RU) [8]: 2 RU
100 nM Ag Bound (RU) [4]: 142 RU
Kd [4]: 1.9 nM
koff [4]: 0.000201 s⁻¹
kon [4]: 106000 M⁻¹ s⁻¹
t½ [4]: 57 min
900 nM or 100 nM Ag Bound (RU) [5]: 37 RU
Kd [5]: 21 nM
koff [5]: 0.00147 s⁻¹
kon [5]: 69900 M⁻¹ s⁻¹
t½ [5]: 8 min
900 nM or 100 nM Ag Bound (RU) [9]: 0 RU
binding result [9]: no binding (tested: 900 nM or 100 nM)
% Inhibition, BRE-luc reporter, 2 nM hBMP7 [7]: 107%
IC50 [M], BRE-luc reporter, 2 nM hBMP7 [7]: 7.6e-10 M

Other lines, results leading:

MFI - Normalized to Unstained Control [1]: 840 fold
100 nM Ag Bound (RU) [2]: 68 RU
Kd [2]: 12.8 nM
koff [2]: 0.000163 s⁻¹
kon [2]: 12700 M⁻¹ s⁻¹
t½ [2]: 71 min
900 nM or 100 nM Ag Bound (RU) [8]: 2 RU
100 nM Ag Bound (RU) [4]: 24 RU
Kd [4]: 11.9 nM
koff [4]: 0.000142 s⁻¹
kon [4]: 11900 M⁻¹ s⁻¹
t½ [4]: 81 min
900 nM or 100 nM Ag Bound (RU) [9]: -3 RU
Kd [10]: 49 nM
koff [10]: 0.000476 s⁻¹
kon [10]: 9710 M⁻¹ s⁻¹
t½ [10]: 24 min
% Inhibition, BRE-luc reporter, 2 nM hBMP7 [7]: 96%
IC50 [M], BRE-luc reporter, 2 nM hBMP7 [7]: 2e-09 M
B2: mAb27400 (antibody, human IgG4 S228P, kappa, V domains shown)
VH: EMQLVESGGGLVQPGGSLKVSCAASGFTLSDSSIHWVRQASGKGLEWIGRIRSKPYSYATAYAASVKGRFTISRDDSKNTAFLQMSGLKTEDTAVYYCTGGDDFWGQGTLVTVSS
VL: DIQMTQSPSTLSASVGDRITITCRASQSISTWLAWYQQKPGKAPKLLIYKASSLEGGVPSRFSGSGSGTDFTLTISSLQPDDFATYYCQQYNTYWTFGQGTKVEIKR

MFI - Normalized to Unstained Control [1]: 1870 fold
100 nM Ag Bound (RU) [2]: 216 RU
Kd [2]: 1.11 nM
koff [2]: 0.000338 s⁻¹
kon [2]: 303000 M⁻¹ s⁻¹
t½ [2]: 34 min
900 nM or 100 nM Ag Bound (RU) [3]: 67 RU
Kd [3]: 7.63 nM
koff [3]: 0.00183 s⁻¹
kon [3]: 240000 M⁻¹ s⁻¹
t½ [3]: 6 min
900 nM or 100 nM Ag Bound (RU) [8]: 4 RU
100 nM Ag Bound (RU) [4]: 160 RU
Kd [4]: 0.444 nM
koff [4]: 8.76e-05 s⁻¹
kon [4]: 198000 M⁻¹ s⁻¹
t½ [4]: 132 min
900 nM or 100 nM Ag Bound (RU) [5]: 46 RU
Kd [5]: 4.49 nM
koff [5]: 0.000446 s⁻¹
kon [5]: 99200 M⁻¹ s⁻¹
t½ [5]: 26 min
900 nM or 100 nM Ag Bound (RU) [9]: 1 RU
binding result [9]: no binding (tested: 900 nM or 100 nM)
% Inhibition, BRE-luc reporter, 2 nM hBMP7 [7]: 109%
IC50 [M], BRE-luc reporter, 2 nM hBMP7 [7]: 8.8e-10 M
B4: mAb27404 (antibody, human IgG4 S228P, kappa, V domains shown)
VH: B3 VH with V48I, Y50F
VL: B3 VL with K1N, I2V, L9I, T14I, I56V, L60V
